The supplement of paper PMC10567573
± gives the standard deviation.

Experiment: protein stability index of a GFP-peptide fusion (GPS, HEK-293T) (PSI 1-6); higher = more stable
Conditions: c terminus: a fixed tail appended
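Also: 24-mer peptide tiles fused after GFP, lentivirally expressed, FACS-sorted into six equal bins by GFP/DsRed ratio, decoded by Illumina sequencing, PSI is the read-weighted mean bin number.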

Row | Sequence | protein stability index (treatment: DMSO) | protein stability index (treatment: MLN4924 1 uM, 8 h)
1 | VMFKIGDLGHVTRISSPQVEEGDS [WEE1] | 3.44 ± 0.23 | 3.45 ± 0.37
2 | VNDNAPEVLLASLANPVLESTPVG [PCDHGC5] | 4.55 ± 0.18 | 4.51 ± 0.12
3 | VNMVDVAKALNRPPTYPTKYFGCE [EIF5] | 2.56 ± 0.19 | 2.45 ± 0.18
4 | VNRKSVKGNTALHDCAESGSLDIM [FEM1C] | 3.7 ± 0.28 | 3.46 ± 0.47
5 | VPQRTAGGDVPERELYIRWLEVAA [MYORG] | 2.62 ± 0.19 | 2.77 ± 0.3
6 | VPVLKPMDLMVEVSPRRIFANGHT [PPP2R2C] | 2.59 ± 0.48 | 2.75 ± 0.14
7 | VQILCHTYWEHWTSQGQVRMRLFG [RTP4] | 2.45 ± 0.87 | 2.52 ± 1.1
8 | VQTPPGGSEVVPVISPMYQLHKPL [IKZF1] | 3.77 ± 0.4 | 3.53 ± 0.23
9 | VRDGPFGFSPIIGRFCGQQNPPVI [NETO1] | 2.27 ± 0.21 | 2.25 ± 0.19
10 | VRELVDKATNVVMNYSEIESKVRE [CLINT1] | 4 ± 0.38 | 3.8 ± 0.37
11 | VRKEDMTYAVRKLDNTKFRSHEGE [SRSF1] | 4.32 ± 0.13 | 4.13 ± 0.16
12 | VRLGSFRSPRAGAGALLRLPSERL [PRPH] | 2.96 ± 0.16 | 3.23 ± 0.24
13 | VRQAFQDQDDRRTWDGRPLTMAAT [GFOD1] | 3.829 ± 0.031 | 3.65 ± 0.26
14 | VRRTDDTPVVLVGNKSDLKQLRQV [RIT1] | 3.56 ± 0.26 | 3.6 ± 0.23
15 | VRVALDYEAGQVTLHNAQTQEPIF [TRIM15] | 2.29 ± 0.33 | 2.51 ± 0.33
16 | VSGINGDIRAKKIASIADVCESMK [HNF4A] | 3.52 ± 0.15 | 3.72 ± 0.31
17 | VSLAVTLHRLKFLGFARRNWGNGK [GDAP1] | 2.38 ± 0.41 | 2.33 ± 0.64
18 | VSTFLSGVMLTWPDGLMYQKFRNQ [TMEM120A] | 2.85 ± 0.82 | 2.36 ± 0.54
19 | VTFREENTIAFRHLFLLGYSDGAD [MCOLN1] | 2.38 ± 0.2 | 2.2 ± 0.11
20 | VTPKKSPPPKTNLTPGQSDSAKRE [FAN1] | 5.22 ± 0.33 | 5.35 ± 0.33

Row | Sequence | protein stability index (treatment: DMSO) | protein stability index (treatment: MLN4924 1 uM, 8 h)
21 | VTVKDETATMKDLEAEVKDTTRVE [R3HDM1] | 5.33 ± 0.17 | 5.56 ± 0.053
22 | VVAYLALAALSATISFRIYKSVLQ [RTN1] | 2.7 ± 0.66 | 2.87 ± 0.43
23 | VVILPCQHNLCRKCASDIFQASNP [TRIM55] | 2.48 ± 0.34 | 2.38 ± 0.22
24 | VVKKIALREIRMLKQLKHPNLVNL [CDKL4] | 2.2 ± 0.76 | 2.63 ± 0.11
25 | VVTSAREHIYDLRSLENYHFVDEH [CLINT1] | 2.85 ± 0.51 | 3.15 ± 0.45
26 | VWERPARSALWCLGLNAAFWFFAL [RETREG3] | 2.62 ± 0.77 | 2.61 ± 0.2
27 | VYLHGDDHQDSDEFCRNTLCAPEV [FAF2] | 4.13 ± 0.22 | 4.23 ± 0.15
28 | WCRDRLLGHREPSAHPVEVFSFDL [TMEM175] | 2.39 ± 0.3 | 2.25 ± 0.39
29 | WDPSPRGCFTLPRSEPIRPIDPAA [DVL3] | 3.98 ± 0.23 | 3.77 ± 0.073
30 | WERKEGGGGISCVLQDGCVFEKAG [CPOX] | 3.82 ± 0.12 | 3.84 ± 0.24
31 | WNHIRLQRTAKGKPVLAKDSSNPY [AASDHPPT] | 2.9 ± 0.39 | 3.19 ± 0.3
32 | WRDSKGKDKEYAEIIRKQVSATKA [UBE2R2] | 3.9 ± 0.34 | 4.07 ± 0.46
33 | WRNLGVQQSQGWVHYMIHEPEPHI [CKS1B] | 2.24 ± 0.23 | 2.28 ± 0.18
34 | WTNGSGLALCQRYYHRGHVDPAND [MCOLN1] | 3.11 ± 0.12 | 3.12 ± 0.21
35 | WVYSGRRGVHCWVCDESVRKLSSA [PRIM1] | 2.51 ± 0.84 | 3.04 ± 0.39
36 | YAAIVAVVAVHVVLALFVYVAWNE [VMA21] | 2.08 ± 0.31 | 2.1 ± 0.11
37 | YADFGPLNLAMVYRYCCKLNKKLK [CDC14A] | 2.9 ± 0.58 | 2.56 ± 0.43
38 | YDWLFFSPDKDSIMNIEPAILVMH [INTS3] | 2.61 ± 0.52 | 2.16 ± 0.21
39 | YGQGRKIAEVCCTSIVYATEKKQT [KCTD10] | 2.83 ± 0.34 | 3.1 ± 0.21
40 | YHMFQREKVEVQLPELFHKIGVGA [KCNAB2] | 2.52 ± 0.59 | 2.39 ± 0.45

Row | Sequence | protein stability index (treatment: DMSO) | protein stability index (treatment: MLN4924 1 uM, 8 h)
41 | YHQGCLVNPTGNLPMWSNQTWNNS [NANOGP8] | 2.5 ± 0.36 | 2.57 ± 0.066
42 | YKMDHRRRGIALIFNHERFFWHLT [CASP6] | 2.4 ± 0.72 | 2.2 ± 0.47
43 | YKRSMDPGYPKMIAHDFPGIGHKV [MMP1] | 2.55 ± 0.21 | 2.77 ± 0.094
44 | YLNHVRAASPQDLAGGYTSSLACH [MNAT1] | 2.85 ± 0.39 | 2.95 ± 0.34
45 | YLPQCSYFKCVQKDIQPYMRRMVA [CCND2] | 2.11 ± 0.28 | 2.01 ± 0.33
46 | YNVSPLSWNVAVKFLMARKFDVLR [PTPN9] | 3.02 ± 0.62 | 2.46 ± 0.88
47 | YPCVLATEGFTSGRHYWEVEVGDK [TRIM39] | 2.59 ± 0.62 | 3.27 ± 0.68
48 | YPHFSHRPSTLQAASTPQAEEDWT [OAS1] | 4.52 ± 0.27 | 4.76 ± 0.23
49 | YPSVILRDPLQTDTLQNDYFAIKQ [ETS1] | 3.1 ± 0.41 | 3.3 ± 0.21
50 | YQAGKPDALTKLEQGEPLWTLEDE [ZNF649] | 4.57 ± 0.17 | 4.6 ± 0.18
51 | YQTEQSLRLLVESDINSIRRILDE [KRT34] | 2.85 ± 0.18 | 2.97 ± 0.42
52 | YSDKNAKLTKESYPVVVAESMYGD [TENT5D] | 4.39 ± 0.054 | 4.43 ± 0.22
53 | YSFYMLTCIDMDWKVLTWLRYTLW [HACD3] | 2.63 ± 0.85 | 2.65 ± 0.36
54 | YSKFHGLEMCVDARTFGNEARFIR [KMT2E] | 2.21 ± 0.17 | 2.25 ± 0.22
55 | YSPSQYALQYAGDGSVLLIPRTMA [NFE2L1] | 2.11 ± 0.22 | 2.26 ± 0.22
56 | YTEQELKPLTLEALGHLGNDDSAD [DLC1] | 5.43 ± 0.12 | 5.43 ± 0.16
57 | YTPDLPRADVDHAIEKAFQLWSNV [MMP1] | 2.6 ± 0.73 | 2.86 ± 0.77
58 | YVPSSESFIIYLKNIVIADFVMSL [P2RY14] | 2.89 ± 0.96 | 2.74 ± 0.78
59 | YVYKAASEGKVLTLAALLLNRSES [FEM1B] | 2.78 ± 0.69 | 2.62 ± 0.56
